Key:
[1] = biological target: T1, MBP-A2 (Qβ lysis protein A2 fused to E. coli maltose-binding protein) (bacteriophage Qβ, UniProt Q8LTE2 1-420); experiment: pull-down
T1 sequence (looked up): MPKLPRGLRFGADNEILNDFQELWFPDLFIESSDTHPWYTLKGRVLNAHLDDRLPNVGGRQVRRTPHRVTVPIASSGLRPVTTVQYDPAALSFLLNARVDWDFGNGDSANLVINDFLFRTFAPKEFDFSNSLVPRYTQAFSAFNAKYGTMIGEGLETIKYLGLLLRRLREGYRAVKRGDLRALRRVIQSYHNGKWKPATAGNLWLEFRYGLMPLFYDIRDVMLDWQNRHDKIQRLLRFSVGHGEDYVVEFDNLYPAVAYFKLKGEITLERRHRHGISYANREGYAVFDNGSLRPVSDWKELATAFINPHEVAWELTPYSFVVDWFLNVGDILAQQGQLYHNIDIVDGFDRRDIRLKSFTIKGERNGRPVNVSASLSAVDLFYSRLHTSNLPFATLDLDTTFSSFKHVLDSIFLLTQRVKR

[2] = biological target: T2, A2 cleaved from the MBP fusion protein with TEV protease (bacteriophage Qβ, UniProt Q8LTE2 1-420); experiment: fusion cleavage assay
T2 sequence (looked up): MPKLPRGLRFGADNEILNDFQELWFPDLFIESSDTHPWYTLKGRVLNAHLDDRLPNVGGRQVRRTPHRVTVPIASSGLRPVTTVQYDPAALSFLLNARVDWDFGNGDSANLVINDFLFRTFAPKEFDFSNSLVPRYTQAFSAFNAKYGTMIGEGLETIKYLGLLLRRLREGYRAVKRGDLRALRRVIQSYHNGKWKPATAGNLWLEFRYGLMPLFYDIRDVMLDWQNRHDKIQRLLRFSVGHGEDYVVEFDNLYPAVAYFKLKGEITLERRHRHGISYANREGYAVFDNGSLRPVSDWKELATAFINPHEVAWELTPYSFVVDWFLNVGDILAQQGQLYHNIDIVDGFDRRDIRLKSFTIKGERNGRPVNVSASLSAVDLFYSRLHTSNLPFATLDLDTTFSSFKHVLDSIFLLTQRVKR

B1: MurA (E. coli), purified, with C-terminal oligo-histidine tag (enzyme)
chain: MDKFRVQGPTKLQGEVTISGAKNAALPILFAALLAEEPVEIQNVPKLKDVDTSMKLLSQLGAKVERNGSVHIDARDVNVFCAPYDLVKTMRASIWALGPLVARFGQGQVSLPGGCTIGARPVDLHISGLEQLGATIKLEEGYVKASVDGRLKGAHIVMDKVSVGATVTIMCAATLAEGTTIIENAAREPEIVDTANFLITLGAKISGQGTDRIVIEGVERLGGGVYRVLPDRIETGTFLVAAAISRGKIICRNAQPDTLDAVLAKLRDAGADIEVGEDWISLDMHGKRPKAVNVRTAPHPAFPTDMQAQFTLLNLVAEGTGFITETVFENRFMHVPELSRMGAHAEIESNTVICHGVEKLSGAQVMATDLRASASLVLAGCIAEGTTVVDRIYHIDRGYERIEDKLRALGANIERVKGE
binding result [1]: binds

B2: MurA^D305A, purified (enzyme, E. coli)
chain: MDKFRVQGPTKLQGEVTISGAKNAALPILFAALLAEEPVEIQNVPKLKDVDTSMKLLSQLGAKVERNGSVHIDARDVNVFCAPYDLVKTMRASIWALGPLVARFGQGQVSLPGGCTIGARPVDLHISGLEQLGATIKLEEGYVKASVDGRLKGAHIVMDKVSVGATVTIMCAATLAEGTTIIENAAREPEIVDTANFLITLGAKISGQGTDRIVIEGVERLGGGVYRVLPDRIETGTFLVAAAISRGKIICRNAQPDTLDAVLAKLRDAGADIEVGEDWISLDMHGKRPKAVNVRTAPHPAFPTAMQAQFTLLNLVAEGTGFITETVFENRFMHVPELSRMGAHAEIESNTVICHGVEKLSGAQVMATDLRASASLVLAGCIAEGTTVVDRIYHIDRGYERIEDKLRALGANIERVKGE
binding result [2]: binds

— article PMC4631118 (Molecular microbiology, 2012)
